Target: hBAFF-R-GFP fusion protein on mouse fibroblast L cells (clone D2C) (human) (UniProt Q96RJ3)
Experiment: cell ELISA of hybridoma supernatant, anti-mouse IgG-HRP; same clone on parental L cell: 0.102

OD 450 nm on (h)BAFF-R-expressing cells: 1.07 OD 450 nm
B1: mouse mAb Clone 55 (hybridoma) (antibody, V domains shown)
VH: QVTLKESGPGILKPSQTLSLTCSFSGFSLSTSGMGVGWIRQPSGKGLEWLAHIWWDDDKYYNSSLKSHLTISKDTSRNQVFLKITSVDTADTATYYCARSFGYGLDYWGQGTTLTVSS
VL: DIQMTQTTSSLSASLGDRVTISCSASQDISNYLNWYQQKPDGTVKLLIYYTSSLHSGVPSRFSGSGSGTDYSLTISSLEPEDIATYYCHQFSELPWTFGGGTKLEIKR

From patent publication US20200190204A1
